In patent publication US20130158238A1 (THERACLONE SCIENCES, published 2013):
Where “and” joins values, the source holds several entries; their conditions need not be identical. Identical values can stand only once.

B1: 23K12 (antibody, V domains shown)
VH: EVQLVESGGGLVQPGGSLRISCAASGFTVSSNYMSWVRQAPGKGLEWVSVIYSGGSTYYADSVKGRFSFSRDNSKNTVFLQMNSLRAEDTAVYYCARCLSRMRGYGLDVWGQGTTVTVS
VL: DIQMTQSPSSLSASVGDRVTITCRTSQSISSYLNWYQQKPGKAPKLLIYAASSLQSGVPSRFSGSGSGTDFTLTISGLQPEDFATYYCQQSYSMPAFGQGTKLEIK
B2: 8i10 (antibody, V domains shown)
VH: QVQLQESGPGLVKPSETLSLTCTVSGSSISNYYWSWIRQSPGKGLEWIGFIYYGGNTKYNPSLKSRVTISQDTSKSQVSLTMSSVTAAESAVYFCARASCSGGYCILDYWGQGTLVTVS
VL: DIQMTQSPSSLSASVGDRVTITCRASQNIYKYLNWYQQRPGKAPKGLISAASGLQSGVPSRFSGSGSGTDFTLTITSLQPEDFATYYCQQSYSPPLTFGGGTRVEIK

Assays:
[1] = target: M2 protein on influenza A/Puerto Rico/8/34 (H1N1) virus particles (Influenza A virus A/Puerto Rico/8/34 …, UniProt P06821 1-97)
[2] = target: CM14; test: ELISA, peptide 2 µg/mL, mAb 5 µg/mL
[3] = target: CM13; test: ELISA, peptide 2 µg/mL, mAb 5 µg/mL
[4] = target: CM16; test: ELISA, peptide 2 µg/mL, mAb 5 µg/mL
[5] = target: NM8; test: ELISA, peptide 2 µg/mL, mAb 5 µg/mL
[6] = target: CM17; test: ELISA, peptide 2 µg/mL, mAb 5 µg/mL
[7] = target: NM12; test: ELISA, peptide 2 µg/mL, mAb 5 µg/mL
[8] = target: NM7; test: ELISA, peptide 2 µg/mL, mAb 5 µg/mL
[9] = target: CM12; test: ELISA, peptide 2 µg/mL, mAb 5 µg/mL
[10] = target: CM15; test: ELISA, peptide 2 µg/mL, mAb 5 µg/mL
[11] = target: M12; test: ELISA, peptide 2 µg/mL, mAb 5 µg/mL
[12] = target: NM14; test: ELISA, peptide 2 µg/mL, mAb 5 µg/mL
[13] = target: NM13; test: ELISA, peptide 2 µg/mL, mAb 5 µg/mL
[14] = target: M2 protein of A/Hong Kong/483/1997, on cells (Influenza A virus A/Hong Kong/483/97 (H5N1)); test: FACS, supernatant on CHO cells stably expressing M2 of A/Hong Kong/483/97
[15] = target: NM15; test: ELISA, peptide 2 µg/mL, mAb 5 µg/mL
[16] = target: NM17; test: ELISA, peptide 2 µg/mL, mAb 5 µg/mL
[17] = target: M2e peptide … (23mer synthetic peptide of M2 derived from A/Fort Worth/1/50) (Influenza A virus A/Fort Worth/1/50 (H1N1)); test: ELISA, peptide 2 µg/mL, mAb 5 µg/mL
[18] = target: M16; test: ELISA, peptide 2 µg/mL, mAb 5 µg/mL
[19] = target: M15; test: ELISA, peptide 2 µg/mL, mAb 5 µg/mL

Binder | EC50 (read off the curve) [1] | binding activity (ELISA A450) [2] | binding activity (ELISA A450) [3] | binding activity (ELISA A450) [4] | binding activity (ELISA A450) [5] | binding activity (ELISA A450) [6] | binding activity (ELISA A450) [7] | binding activity (ELISA A450) [8] | binding activity (ELISA A450) [9] | binding activity (ELISA A450) [10] | binding activity (ELISA A450) [11] | binding activity (ELISA A450) [12] | binding activity (ELISA A450) [13] | FACS M2-HK MFI [14] | binding activity (ELISA A450) [15] | binding activity (ELISA A450) [16] | binding activity (ELISA A450) [17] | binding activity (ELISA A450) [18] | binding activity (ELISA A450) [19]
B1 | ~0.06 mg/L | 0.36 | 0.34 | 0.35 | 0.2 | 0.34 | 0.24 | 0.2 | 0.39 | 0.34 | 0.2 | 0.24 | 0.25 |  |  |  |  |  | 
B2 | ~0.04 mg/L | 0.14 | 0.14 | 0.13 | 0.1 | 0.11 | 0.1 | 0.1 | 0.14 | 0.12 | 0.09 | 0.11 | 0.11 | 754 MFI and 1080 MFI | 0.12 | 0.26 | 0.11 | 0.09 | 0.09
